± gives the uncertainty stated by the source.
Experiment: self-splicing fitness, log relative to wild type (ln ratio); higher = more splicing; Tetrahymena group I intron in knt gene, E. coli kanamycin selection, DiMSum; sequences stand for … in CUCUCU…GGAGGGAAAAGUUAUCAGGCAUGCACCUGGUAGCUAGUCUUUAAACCAAUAGAUUGCAUCGGUUUAAAAGGCAAGACCGUCAAAUUGCGGGAAAGGGGUCAACAGCCGUUCAGUACCAAGUCUCAGGGGAAACUUUGAGAUGGCCUUGCAAAGGGUAUGGUAAUAAGCUGACGGACAUGGUCCUAACCACGCAGCCAAGUCCUAAGUCAACAGAUCUUCUGUUGAUAUGGAUGCAGUUCACAGACUAAAUGUCGGUCGGGGAAGAUGUAUUCUUCUCAUAAGAUAUAGUCGGACCUCUCCUUAAUGGGAGCUAGCGGAUGAAGUGAUGCAACACUGGAGCCGCUGGGAACUAAUUUGUAUGCGAAAGUAUAUUGAUUAGUUUUGGAGUACUCGUGGUCG
Method in brief: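 A randomised library covering all eight P1ex-region intron nucleotides was built with the intron in the knt kanamycin-resistance gene on pET-22b(+) and held in E. coli BL21(DE3). Cells were grown overnight at 37°C or 30°C on LB agar, with or without 25 μg/mL kanamycin, plus 100 μg/mL carbenicillin, 50 μM IPTG and 0.2% rhamnose, and pooled colonies were amplicon-sequenced on an Illumina HiSeq 2500. DiMSum fitness is the error-weighted combination of wild-type-normalised replicate fold changes, kanamycin versus none.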

Sequence	self-splicing fitness (ln) (30 °C)	self-splicing fitness (ln) (37 °C)
CUUCAGCAAUAUUACGCAGU	-3.96 ± 0.43	-2.9 ± 0.33
CUUCAGCAAUAUUACGCCUG	-0.748 ± 0.074	0.268 ± 0.1
CUUCAGCAAUAUUACGCGAU	-2.85 ± 0.32	-1.19 ± 0.38
CUUCAGCAAUAUUACGCUGA	-2.41 ± 0.17	-2.56 ± 0.29
CUUCAGCAAUAUUACGCUGC	–	-1.65 ± 0.18
CUUCAGCAAUAUUACGGAUU	-2.13 ± 0.18	-1.75 ± 0.16
CUUCAGCAAUAUUACGGCCG	-0.988 ± 0.16	-0.154 ± 0.21
CUUCAGCAAUAUUACGGCUA	-3.01 ± 0.2	-2.06 ± 0.24
CUUCAGCAAUAUUACGGGAG	-3.41 ± 0.24	-2.52 ± 0.22
CUUCAGCAAUAUUACGGUCG	-0.131 ± 0.062	-0.155 ± 0.093
CUUCAGCAAUAUUACGUAUA	-3.15 ± 0.27	-1.98 ± 0.2
CUUCAGCAAUAUUACGUAUG	-0.871 ± 0.066	-0.276 ± 0.074
CUUCAGCAAUAUUACGUCGA	-4.35 ± 0.46	-2.95 ± 0.3
CUUCAGCAAUAUUACGUCUA	–	-2.38 ± 0.32
CUUCAGCAAUAUUACGUGGA	-3.13 ± 0.33	-3.04 ± 0.28
CUUCAGCAAUAUUACGUUAA	-2.84 ± 0.24	-3.51 ± 0.46
CUUCAGCAAUAUUACGUUUU	-1.52 ± 0.13	-2.46 ± 0.26
CUUGAGCAAUAUUACGAAAG	-2.3 ± 0.25	-3.32 ± 0.46
CUUGAGCAAUAUUACGAAGA	-2.53 ± 0.27	-3.17 ± 0.37
CUUGAGCAAUAUUACGACCG	-1.68 ± 0.19	-1.16 ± 0.26
CUUGAGCAAUAUUACGAGAC	-2.12 ± 0.33	–
CUUGAGCAAUAUUACGAUGA	-1.49 ± 0.23	-2.03 ± 0.28
CUUGAGCAAUAUUACGAUGC	-3.25 ± 0.3	-2.5 ± 0.41
CUUGAGCAAUAUUACGAUUG	-2.49 ± 0.13	-1.32 ± 0.14
CUUGAGCAAUAUUACGCAAG	-2.37 ± 0.42	–

Sequence	self-splicing fitness (ln) (30 °C)	self-splicing fitness (ln) (37 °C)
CUUGAGCAAUAUUACGCAGU	-2.73 ± 0.23	-2.64 ± 0.37
CUUGAGCAAUAUUACGCCGU	-3.24 ± 0.29	–
CUUGAGCAAUAUUACGCCUC	–	-0.747 ± 0.3
CUUGAGCAAUAUUACGCGAC	-3.55 ± 0.28	-0.595 ± 0.16
CUUGAGCAAUAUUACGCGGA	-2.71 ± 0.33	-3.47 ± 0.31
CUUGAGCAAUAUUACGCUGG	-3.81 ± 0.25	-2.17 ± 0.17
CUUGAGCAAUAUUACGGAAU	-2.85 ± 0.41	-2.3 ± 0.48
CUUGAGCAAUAUUACGGGAA	-3.79 ± 0.42	-2.73 ± 0.2
CUUGAGCAAUAUUACGGGCG	-2.02 ± 0.13	-1.51 ± 0.11
CUUGAGCAAUAUUACGGGGA	-3.27 ± 0.2	-2.87 ± 0.28
CUUGAGCAAUAUUACGGUCC	-0.924 ± 0.28	–
CUUGAGCAAUAUUACGGUCU	-3.17 ± 0.29	-3.61 ± 0.37
CUUGAGCAAUAUUACGGUGU	-3 ± 0.13	-3.01 ± 0.18
CUUGAGCAAUAUUACGUAGA	-3.54 ± 0.21	-3.91 ± 0.39
CUUGAGCAAUAUUACGUAUG	-1.21 ± 0.1	-1.35 ± 0.14
CUUGAGCAAUAUUACGUCCG	-1.86 ± 0.19	-0.79 ± 0.19
CUUGAGCAAUAUUACGUCGC	-2.54 ± 0.21	-1.81 ± 0.19
CUUGAGCAAUAUUACGUCUC	-3.07 ± 0.24	-2.19 ± 0.27
CUUGAGCAAUAUUACGUCUG	-0.671 ± 0.086	-0.657 ± 0.11
CUUGAGCAAUAUUACGUCUU	-4.1 ± 0.21	-2.48 ± 0.2
CUUGAGCAAUAUUACGUGUU	–	-2.54 ± 0.23
CUUGAGCAAUAUUACGUUAG	-3.13 ± 0.2	-1.11 ± 0.15
CUUGAGCAAUAUUACGUUCG	-3.19 ± 0.3	-1.71 ± 0.21
CUUUAGCAAUAUUACGACAC	-3.75 ± 0.3	-2.54 ± 0.27
CUUUAGCAAUAUUACGACAU	-3.762 ± 0.032	-2.81 ± 0.043

Sequence	self-splicing fitness (ln) (30 °C)	self-splicing fitness (ln) (37 °C)
CUUUAGCAAUAUUACGAGGA	-2.59 ± 0.32	-3.02 ± 0.4
CUUUAGCAAUAUUACGCGUG	-1.89 ± 0.14	-1.12 ± 0.17
CUUUAGCAAUAUUACGCUCU	-2.15 ± 0.22	-1.3 ± 0.26
CUUUAGCAAUAUUACGGAAU	-1.75 ± 0.23	-1.73 ± 0.36
CUUUAGCAAUAUUACGGACA	-2.76 ± 0.38	-1.44 ± 0.28
CUUUAGCAAUAUUACGGGUC	-3.26 ± 0.17	-1.32 ± 0.21
CUUUAGCAAUAUUACGUAAA	–	-2.24 ± 0.28
CUUUAGCAAUAUUACGUAGU	-3.52 ± 0.2	-2.2 ± 0.22
CUUUAGCAAUAUUACGUGAG	-1.07 ± 0.11	-0.581 ± 0.14
CUUUAGCAAUAUUACGUGUA	-3.34 ± 0.19	-2.81 ± 0.24
CUUUAGCAAUAUUACGUUCU	-3.16 ± 0.25	-2.78 ± 0.29
GAAAAGCAAUAUUACGAACG	-0.893 ± 0.083	-0.364 ± 0.11
GAAAAGCAAUAUUACGAACU	-0.519 ± 0.1	0.532 ± 0.13
GAAAAGCAAUAUUACGAAGG	-3.27 ± 0.24	-3.01 ± 0.37
GAAAAGCAAUAUUACGAAUC	-2.99 ± 0.21	-1.04 ± 0.18
GAAAAGCAAUAUUACGACAG	-2.55 ± 0.19	-2.27 ± 0.25
GAAAAGCAAUAUUACGACCG	-0.942 ± 0.14	-0.33 ± 0.17
GAAAAGCAAUAUUACGACGG	-2.29 ± 0.17	-2.4 ± 0.32
GAAAAGCAAUAUUACGAGAG	-3.43 ± 0.28	-2.48 ± 0.21
GAAAAGCAAUAUUACGAGAU	-3.26 ± 0.26	-2.08 ± 0.28
GAAAAGCAAUAUUACGAGUU	-1.15 ± 0.073	0.164 ± 0.094
GAAAAGCAAUAUUACGCAAC	-2.92 ± 0.16	-0.437 ± 0.16
GAAAAGCAAUAUUACGCCCG	-0.583 ± 0.14	-0.75 ± 0.21
GAAAAGCAAUAUUACGCCGG	-1.34 ± 0.18	-1.2 ± 0.17
GAAAAGCAAUAUUACGCCUA	-1.15 ± 0.11	-0.681 ± 0.099

Sequence	self-splicing fitness (ln) (30 °C)	self-splicing fitness (ln) (37 °C)
GAAAAGCAAUAUUACGCGCA	-0.195 ± 0.062	-0.0235 ± 0.084
GAAAAGCAAUAUUACGGCCC	0.0394 ± 0.14	0.473 ± 0.17
GAAAAGCAAUAUUACGGCUG	-0.13 ± 0.091	0.108 ± 0.14
GAAAAGCAAUAUUACGUAAG	-2.23 ± 0.11	-0.733 ± 0.12
GAAAAGCAAUAUUACGUAGU	-2.02 ± 0.077	-1.75 ± 0.13
GAAAAGCAAUAUUACGUGUA	-2.58 ± 0.11	-0.56 ± 0.085
GAAAAGCAAUAUUACGUGUC	-3.41 ± 0.13	-2.33 ± 0.14
GAAAAGCAAUAUUACGUUAC	-2.67 ± 0.12	-1.84 ± 0.13
GAAAAGCAAUAUUACGUUCC	-3.72 ± 0.26	-2.95 ± 0.24
GAAAAGCAAUAUUACGUUGG	-3.55 ± 0.19	-2.16 ± 0.16
GAAAAGCAAUAUUACGUUUC	-2.95 ± 0.17	-2.69 ± 0.25
GAACAGCAAUAUUACGACAA	-1.24 ± 0.13	-0.239 ± 0.15
GAACAGCAAUAUUACGACCA	-0.754 ± 0.12	-0.113 ± 0.12
GAACAGCAAUAUUACGACCU	-0.509 ± 0.099	-0.0216 ± 0.13
GAACAGCAAUAUUACGACUC	0.0151 ± 0.071	-0.517 ± 0.082
GAACAGCAAUAUUACGAGCG	-1.94 ± 0.089	-0.559 ± 0.1
GAACAGCAAUAUUACGAUGG	-3.04 ± 0.19	-1.17 ± 0.13
GAACAGCAAUAUUACGCCAC	-3.15 ± 0.22	–
GAACAGCAAUAUUACGCCGG	-1.56 ± 0.18	-0.838 ± 0.24
GAACAGCAAUAUUACGCCGU	-1.98 ± 0.13	-1.61 ± 0.13
GAACAGCAAUAUUACGCGAC	-2.3 ± 0.14	-2.36 ± 0.18
GAACAGCAAUAUUACGCGAG	-2.2 ± 0.099	-1.32 ± 0.11
GAACAGCAAUAUUACGCGAU	-2.87 ± 0.13	-2.27 ± 0.14

From the supplement of paper PMC7877785
